Laboratory results reported in patent publication US20190185562A1 (Regeneron, published 2019).
Each block holds one binder with its values, some of them ahead of it.

Key:
[1] = biological target: T1, wild-type human GP130 on HEK293.STAT3.Luc.GP130.hLEPR reporter cells (human, UniProt P40189 23-918); assay: cell-based or functional assay
T1 sequence (looked up): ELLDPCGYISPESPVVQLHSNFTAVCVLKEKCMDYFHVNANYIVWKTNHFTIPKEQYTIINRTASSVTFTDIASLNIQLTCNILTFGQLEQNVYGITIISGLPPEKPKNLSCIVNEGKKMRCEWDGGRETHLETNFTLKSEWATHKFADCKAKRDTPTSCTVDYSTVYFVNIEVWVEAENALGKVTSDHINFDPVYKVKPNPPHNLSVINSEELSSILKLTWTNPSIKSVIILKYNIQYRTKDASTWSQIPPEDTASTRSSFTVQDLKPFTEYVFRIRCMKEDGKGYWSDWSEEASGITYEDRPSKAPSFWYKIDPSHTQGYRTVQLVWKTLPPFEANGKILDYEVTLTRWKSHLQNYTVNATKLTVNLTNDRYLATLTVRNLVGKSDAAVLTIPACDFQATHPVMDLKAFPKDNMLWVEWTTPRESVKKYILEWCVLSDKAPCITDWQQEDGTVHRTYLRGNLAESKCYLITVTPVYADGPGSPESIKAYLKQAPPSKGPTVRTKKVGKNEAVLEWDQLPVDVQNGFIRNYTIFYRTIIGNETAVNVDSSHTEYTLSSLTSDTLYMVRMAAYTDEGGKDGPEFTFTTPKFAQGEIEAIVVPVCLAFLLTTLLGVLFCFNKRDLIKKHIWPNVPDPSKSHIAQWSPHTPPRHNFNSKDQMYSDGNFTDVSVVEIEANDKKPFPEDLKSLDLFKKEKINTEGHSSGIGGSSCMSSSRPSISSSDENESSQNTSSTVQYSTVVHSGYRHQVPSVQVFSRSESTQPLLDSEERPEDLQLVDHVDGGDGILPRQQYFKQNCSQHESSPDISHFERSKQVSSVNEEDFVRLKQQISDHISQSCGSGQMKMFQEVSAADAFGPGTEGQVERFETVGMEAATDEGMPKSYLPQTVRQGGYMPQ

[2] = biological target: T2, mutant human LEPR (Y1141F) on HEK293.STAT3.Luc.GP130.hLEPR (Y1141F) cells (human, UniProt P48357 22-1165); assay: cell-based or functional assay
T2 sequence (looked up): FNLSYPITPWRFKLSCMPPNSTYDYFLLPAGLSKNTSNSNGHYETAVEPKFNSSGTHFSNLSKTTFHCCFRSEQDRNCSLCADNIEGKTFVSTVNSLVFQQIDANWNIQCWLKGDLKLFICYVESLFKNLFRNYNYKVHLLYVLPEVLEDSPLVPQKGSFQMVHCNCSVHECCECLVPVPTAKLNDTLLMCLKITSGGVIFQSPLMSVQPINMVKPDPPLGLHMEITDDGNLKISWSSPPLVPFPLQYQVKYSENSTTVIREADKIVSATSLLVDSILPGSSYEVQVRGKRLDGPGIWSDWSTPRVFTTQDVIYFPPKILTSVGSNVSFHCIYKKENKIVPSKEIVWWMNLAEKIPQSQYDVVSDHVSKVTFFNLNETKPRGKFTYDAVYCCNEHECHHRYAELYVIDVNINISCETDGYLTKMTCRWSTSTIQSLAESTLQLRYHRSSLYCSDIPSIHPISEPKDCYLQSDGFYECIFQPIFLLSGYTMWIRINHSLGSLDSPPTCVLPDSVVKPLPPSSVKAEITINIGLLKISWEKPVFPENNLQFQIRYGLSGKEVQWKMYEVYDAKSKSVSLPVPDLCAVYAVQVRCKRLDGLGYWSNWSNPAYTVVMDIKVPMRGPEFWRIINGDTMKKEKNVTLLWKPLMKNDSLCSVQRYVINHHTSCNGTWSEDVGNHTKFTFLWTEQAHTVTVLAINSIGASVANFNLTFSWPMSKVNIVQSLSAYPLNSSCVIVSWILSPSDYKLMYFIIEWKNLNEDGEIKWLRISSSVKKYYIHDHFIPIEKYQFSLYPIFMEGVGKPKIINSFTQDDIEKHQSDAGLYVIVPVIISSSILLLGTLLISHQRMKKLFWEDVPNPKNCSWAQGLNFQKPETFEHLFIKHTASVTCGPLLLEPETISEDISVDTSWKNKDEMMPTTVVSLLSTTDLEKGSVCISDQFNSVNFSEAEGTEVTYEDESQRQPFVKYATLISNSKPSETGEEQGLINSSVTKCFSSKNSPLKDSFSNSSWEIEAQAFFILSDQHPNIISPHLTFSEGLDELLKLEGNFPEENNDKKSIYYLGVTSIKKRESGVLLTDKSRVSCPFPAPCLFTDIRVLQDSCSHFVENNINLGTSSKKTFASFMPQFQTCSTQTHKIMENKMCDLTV

[3] = biological target: T3, full length human GP130 (leucine at position 2 changed to valine) on HEK293/Stat3-luc/gp130-2X Sort cells (human, UniProt P40189 23-918); assay: FACS, 200 nM antibody, HEK293/gp130 2X Sort cells
T3 construct: whole, on cells; also called HEK293/gp130 2X Sort
T3 sequence (looked up): T1 sequence (looked up)
Description: (§1) For the FACS analysis, 0.5×10^6 cells/well of HEK293 parental cells, HEK293/Stat3-luc/gp130-2X Sort cells, and HEK293/hLEPR-GPI cells, were incubated with 200 nM of the conventional antibodies against either GP130 or LEPR or with LEPR×GP130 bispecific antibodies, along with isotype control antibodies at 4° C. in PBS (without calcium and magnesium) containing 2% FBS.
(§2) Cells were fixed using BD CytoFix™ (Becton Dickinson, #554655) and analyzed on an IQue® (Intellicyt) Flow Cytometer. Unstained and secondary antibody alone controls were also tested for all cell lines. The results were analyzed using ForeCyt® (IntelliCyt) and FlowJo version 10 softwares to determine the geometric means of fluorescence for viable cells.

[4] = biological target: T4, extracellular domain of human LEPR, GPI-anchored on HEK293/hLEPR-GPI cells (human, UniProt P48357 22-839, GPI anchor at the C-terminus ; GPI anchor at the C-terminus, added through the carboxypeptidase M signal peptide. The protein is displayed on the HEK293 cell membrane.); assay: FACS, 200 nM antibody, HEK293/hLEPR-GPI cells, No Leptin
T4 sequence: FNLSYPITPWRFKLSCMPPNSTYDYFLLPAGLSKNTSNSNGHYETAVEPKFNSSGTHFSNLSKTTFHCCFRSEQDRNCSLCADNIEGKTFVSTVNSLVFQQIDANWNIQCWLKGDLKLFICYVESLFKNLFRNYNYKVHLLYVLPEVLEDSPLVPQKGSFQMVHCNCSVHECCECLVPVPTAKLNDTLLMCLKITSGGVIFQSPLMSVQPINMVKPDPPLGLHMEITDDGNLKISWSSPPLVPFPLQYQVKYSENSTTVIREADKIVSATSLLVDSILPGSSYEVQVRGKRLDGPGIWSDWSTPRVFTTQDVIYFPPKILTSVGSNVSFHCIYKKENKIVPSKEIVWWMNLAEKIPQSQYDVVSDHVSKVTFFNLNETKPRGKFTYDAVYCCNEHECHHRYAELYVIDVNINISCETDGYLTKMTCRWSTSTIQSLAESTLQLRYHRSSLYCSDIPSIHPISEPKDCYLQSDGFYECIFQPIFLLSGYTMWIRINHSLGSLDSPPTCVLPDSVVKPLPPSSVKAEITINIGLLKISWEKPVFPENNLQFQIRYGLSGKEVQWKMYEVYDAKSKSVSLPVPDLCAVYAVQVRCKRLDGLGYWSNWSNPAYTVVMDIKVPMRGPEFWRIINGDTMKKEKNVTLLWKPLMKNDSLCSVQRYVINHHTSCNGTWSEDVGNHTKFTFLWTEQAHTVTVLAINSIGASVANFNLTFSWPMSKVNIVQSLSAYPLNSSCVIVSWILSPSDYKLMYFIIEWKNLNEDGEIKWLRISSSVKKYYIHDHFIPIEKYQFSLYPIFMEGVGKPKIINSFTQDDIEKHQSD
Description: as §1, §2

[5] = biological target: T4, extracellular domain of human LEPR, …; assay: FACS, 200 nM antibody, HEK293/hLEPR-GPI cells, 1 µM Leptin present
Description: as §1, §2

[6] = biological target: T5, human LEPR extracellular domain expressed with a C-terminal myc-myc-hexahistidine tag (human, UniProt P48357 22-839); assay: SPR (Biacore 4000), antibody captured by anti-human Fc, 25 C
T5 construct: Monomeric reagent; the entry named is the whole tagged construct; also called hLEPR-MMH; hLEPR.mmh

[7] = biological target: T6, macaca fascicularis LEPR extracellular domain expressed with a C-terminal myc-myc-hexahistidine tag (Macaca fascicularis, UniProt Q9MYL0 22-837 (rhesus entry)); assay: as above
T6 construct: Monomeric reagent; the entry named is the whole tagged construct; also called mfLEPR-MMH

B1: bsAb21236D (bispecific antibody, V domains shown)
VH 1: QVQLQESGPGLVKPSQTLSLTCTVSGGSISSGGDYWSWIRQLPGKGLEWIGYIYYSGSAYYNPSLKSRGTISIDTSKNQFSLKLTSVTAADTAVYFCVKLRFLEWFLGGWFGPWGQGTLVTVSS
VH 2: QVQLVESGGGLVKPGGSLRLSCAASGFTFSDYYMTWIRQTPGKGLDWVSYISSSGTNKYNADSVKGRFTISRDNAKNSLYLQMNSLRAEDTAVYYCVRDPPWGMDVWGQGTTVTVSS
VL: not shown
notes: LEPR x GP130 bispecific with common light chain; also called H4H21236D; bsAb21236 (LEPR × GP130)
EC50 (M), STAT3-luciferase activation of HEK293.STAT3.Luc.GP130.hLEPR (Y1141F) cells, 10 nM leptin [1]: 2.11e-09 M | Percentage activation as compared to hOSM [1]: 25% | Percentage activation as compared to hOSM [2]: 25% | Binding Ratio: Normalized to Unstained Sample of Each Cell Line (FL4-A) [3]: 132 ratio | Binding Ratio: Normalized to Unstained Sample of Each Cell Line (FL4-A) [4]: 4420 ratio | Binding Ratio: Normalized to Unstained Sample of Each Cell Line (FL4-A) [5]: 3600 ratio

B3: bsAb21237D (bispecific antibody, V domains shown)
VH 1: EVQLVESGGGLVQPGGSLRLSCAASGFTFSNYGMTWVRQAPGKGLEWVSAITGGGGSTYYSNSVKGRFTISRDNSKNTVYLRMNSVRAEDTAVYYCAKYKWNFVDDWGQGTTVTVSS
VH 2: B1 VH 2
VL: not shown
notes: LEPR x GP130 bispecific with common light chain; also called H4H21237D; bsAb21237 (LEPR × GP130)
EC50 (M), STAT3-luciferase activation of HEK293.STAT3.Luc.GP130.hLEPR (Y1141F) cells, 10 nM leptin [1]: 2.46e-09 M | Percentage activation as compared to hOSM [1]: 20% | Percentage activation as compared to hOSM [2]: 20% | Binding Ratio: Normalized to Unstained Sample of Each Cell Line (FL4-A) [3]: 169 ratio | Binding Ratio: Normalized to Unstained Sample of Each Cell Line (FL4-A) [4]: 6320 ratio | Binding Ratio: Normalized to Unstained Sample of Each Cell Line (FL4-A) [5]: 5930 ratio

B4: bsAb21236D (bispecific antibody, V domains shown)
VH 1: B1 VH 1
VH 2: B1 VH 2
VL: not shown
notes: LEPR x GP130 bispecific antibody; also called H4H21236D
100 nM hLEPR-MMH Bound (RU) [6]: 8 RU

B5: mAb16683 (antibody, V domains shown)
VH: B1 VH 2
VL: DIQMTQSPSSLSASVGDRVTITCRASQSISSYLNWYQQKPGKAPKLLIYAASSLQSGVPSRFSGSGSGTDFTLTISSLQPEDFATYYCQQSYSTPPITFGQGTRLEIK
notes: Conventional anti-GP130 antibody; also called mAb16683 (anti-GP130 mAb)
Binding Ratio: Normalized to Unstained Sample of Each Cell Line (FL4-A) [3]: 235 ratio | Binding Ratio: Normalized to Unstained Sample of Each Cell Line (FL4-A) [4]: 21 ratio

B6: bsAb21237D (bispecific antibody, V domains shown)
VH 1: B3 VH 1
VH 2: B1 VH 2
VL: not shown
notes: LEPR x GP130 bispecific antibody; also called H4H21237D
t½ [6]: 10 min | t½ [7]: 10 min

Further lines, results first:

Binding Ratio: Normalized to Unstained Sample of Each Cell Line (FL4-A) [4]: 4710 ratio | Binding Ratio: Normalized to Unstained Sample of Each Cell Line (FL4-A) [5]: 4250 ratio
B2: mAb18445 (antibody, V domains shown)
VH: B1 VH 1
VL: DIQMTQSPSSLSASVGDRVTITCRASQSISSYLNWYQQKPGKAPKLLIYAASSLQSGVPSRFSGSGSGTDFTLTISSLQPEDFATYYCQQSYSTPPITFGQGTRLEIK
notes: Conventional anti-LEPR antibody; also called mAB18445 (anti-LEPR mAb)

Binding Ratio: Normalized to Unstained Sample of Each Cell Line (FL4-A) [4]: 7020 ratio | Binding Ratio: Normalized to Unstained Sample of Each Cell Line (FL4-A) [5]: 6390 ratio
B7: mAb18446 (antibody, V domains shown)
VH: B3 VH 1
VL: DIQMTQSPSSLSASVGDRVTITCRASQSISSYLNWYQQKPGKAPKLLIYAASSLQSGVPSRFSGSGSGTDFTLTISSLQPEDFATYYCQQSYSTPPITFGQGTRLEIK
notes: Conventional anti-LEPR antibody; also called mAB18446 (anti-LEPR mAb)
